# Results: patent US20190382503A1 (published 2019)
# T1: human 5T4 on cells (human, UniProt Q13641 32-420)
# T1 construct: Human 5T4 on transfected cells (CHO-K1, CT26, B16) or endogenous on human tumour lines; the cell line is named under assay; also called trophoblast glycoprotein; TPBG
# T1 sequence: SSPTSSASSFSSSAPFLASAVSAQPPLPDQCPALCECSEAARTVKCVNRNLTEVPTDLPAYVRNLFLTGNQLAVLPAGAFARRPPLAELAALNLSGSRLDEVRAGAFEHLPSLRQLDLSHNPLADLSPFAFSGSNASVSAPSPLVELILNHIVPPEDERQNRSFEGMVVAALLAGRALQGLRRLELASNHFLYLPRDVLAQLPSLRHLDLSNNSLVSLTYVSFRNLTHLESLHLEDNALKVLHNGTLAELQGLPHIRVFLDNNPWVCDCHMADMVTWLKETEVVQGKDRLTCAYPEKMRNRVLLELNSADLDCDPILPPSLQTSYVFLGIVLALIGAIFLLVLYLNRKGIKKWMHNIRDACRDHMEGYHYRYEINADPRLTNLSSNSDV
# Assays:
# [1] = biological target: T1, human 5T4 on cells; assay: flow cytometry, CT26-hu5T4^high cells, streptavidin-PE, normalized MFI of 2 pooled experiments
# Experimental: (§1) Biotinylation: In order to detect ALG.APV-210 binding to 5T4-expressing cell lines, ALG.APV-210 was first biotinylated. The quality of the biotinylated protein and the impact on binding to its targets was assessed using ELISA.
# (§2) FACS staining and analysis of 5T4-expressing cell lines: Prior to the FACS staining, all cell lines were characterized for their 5T4 expression levels using a receptor density kit (Quantum Simply Cellular, anti-human IgG, Bangs Laboratories, Inc). Adherent cell lines were cultured according to their supplier's instructions and were harvested from their cell culture flasks using Trypsin/EDTA, counted in R10 medium in a Burker chamber, and diluted in FACS buffer (PBS+0.5% BSA, 0.05% NaN₃) to a concentration of 4×10⁶ cells/mL. 50 μL (0.20×10⁶) of cell solution was added to a 96-well FACS staining plate (Falcon #351190). Cells were incubated for 20 min in 4° C. with 50 μL of the biotinylated ALG.APV-210 (2× final concentration). […] Cells were analysed for ALG.APV-210 binding using flow cytometry (FACSVerse) by gating on single cells. MFI values (secondary antibody only subtracted) from 1 out of 2 independent experiments, as well as normalized data and EC₅₀-values of pooled data from 2 experiments were determined and plotted using GraphPad Prism 7, non-linear regression log (agonist) vs. normalized response-variable slope.
# [2] = biological target: T1, human 5T4 on cells; assay: flow cytometry, SKOV-3 cells, streptavidin-PE, normalized MFI of 2 pooled experiments
# Experimental: as §1, §2
# [3] = biological target: T2, human CD137 on cells (human, UniProt Q07011 24-255); assay: flow cytometry, CD3-stimulated primary human CD8 T cells (summary of the study)
# T2 construct: Human CD137 on CHO-K1 transfectants, Jurkat/CD137 reporter cells or CD3-stimulated primary human CD8 T cells; cells named under assay; also called 4-1BB; TNFRSF9
# T2 sequence (Q07011 24-255 limits assumed): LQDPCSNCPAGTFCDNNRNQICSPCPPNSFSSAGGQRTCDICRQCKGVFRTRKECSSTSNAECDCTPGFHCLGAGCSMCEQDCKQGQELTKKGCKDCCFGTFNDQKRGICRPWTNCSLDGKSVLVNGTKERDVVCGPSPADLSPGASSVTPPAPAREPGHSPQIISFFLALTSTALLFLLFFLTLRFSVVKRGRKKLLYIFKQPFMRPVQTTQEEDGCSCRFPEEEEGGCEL
# Experimental: (§3) FACS staining and analysis of CD8 T cells: Following 48 h of incubation with or without CD3, human and cynomolgus PBMC were harvested, pooled, recounted and diluted in FACS buffer (PBS+0.5% BSA, 0.05% NaN₃) to a concentration of 5×10⁶ cells/mL. 50 μL (0.25×10⁶ cells) of cell solution was added to a 96-well FACS staining plate (Falcon #351190). Following 10 min of Fc-blocking in RT using Beriglobin (hIgG, 200 μg/mL), cells were washed in FACS buffer and then incubated for 1 h in 4° C. with 100 μL of the biotinylated ALG.APV-210 or negative control. The antibodies were added in a serial dilution starting either at 5 μg/mL titrating down in a 12 step 1/3 dilution down to 0.0003 μg/mL (exp 1) or 1 μg/mL titrating down in a 12 step 1/2 dilution down to 0.0005 μg/mL (exp 2). […] Cells were analysed for ALG.APV-210 binding using flow cytometry by gating on viable, single cells expressing CD3 and CD8. MFI values (FMO subtracted) from 2 independent experiments as well as normalized pooled data from 2 experiments and EC₅₀-values were determined and plotted using GraphPad Prism 7, non-linear regression log (agonist) vs. normalized response-variable slope, n=6 donors/group.
# [4] = biological target: T1, human 5T4 on cells; assay: flow cytometry, JAR cells, streptavidin-PE, normalized MFI of 2 pooled experiments
# Experimental: as §1, §2
# [5] = biological target: T3, cynomolgus CD137 on cells (cynomolgus macaque, UniProt A9YYE7 24-254); assay: flow cytometry, cynomolgus CD8 T cells gated from CD3-stimulated PBMC, normalized MFI, 2 pooled experiments
# T3 construct: whole, on cells; also called CHO-K1/cynomolgus CD137; cynomolgus monkey CD137
# T3 sequence (A9YYE7 entry or part of it): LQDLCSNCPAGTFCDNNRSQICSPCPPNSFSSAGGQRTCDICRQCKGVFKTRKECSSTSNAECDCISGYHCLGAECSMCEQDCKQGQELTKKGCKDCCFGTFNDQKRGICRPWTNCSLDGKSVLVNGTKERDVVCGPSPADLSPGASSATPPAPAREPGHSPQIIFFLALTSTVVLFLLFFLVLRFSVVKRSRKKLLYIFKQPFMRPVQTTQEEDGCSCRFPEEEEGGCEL
# Experimental: Isolation and stimulation of cynomolgus PBMC: Cynomolgus PBMC were isolated from 20 mL of cynomolgus monkey blood from 3 different donors, obtained from Silabe, France by density gradient centrifugation using Lympholyte-mammal (Cedarlane labs) according to manufacturer's instructions. Non-tissue treated 96 well plates were pre-coated overnight at 4° C. with 3 μg/mL α-monkey CD3, clone FN-18 (Invitrogen #APS0301). The cynomolgus PBMC were then stimulated identically as the human PBMC described above
# FACS staining and analysis of CD8 T cells: Following 48 h of incubation with or without CD3, human and cynomolgus PBMC were harvested, pooled, recounted and diluted in FACS buffer (PBS+0.5% BSA, 0.05% NaN₃) to a concentration of 5×10⁶ cells/mL. 50 μL (0.25×10⁶ cells) of cell solution was added to a 96-well FACS staining plate (Falcon #351190). […] Cells were analysed for ALG.APV-210 binding using flow cytometry by gating on viable, single cells expressing CD3 and CD8. MFI values (FMO subtracted) from 2 independent experiments as well as normalized pooled data from 2 experiments and EC₅₀-values were determined and plotted using GraphPad Prism 7, non-linear regression log (agonist) vs. normalized response-variable slope, n=6 donors/group.
# [6] = biological target: T2, human CD137 on cells; assay: flow cytometry, human CD8 T cells gated from CD3-stimulated PBMC, normalized MFI, 2 pooled experiments
# Experimental: as §3
# [7] = biological target: T1, human 5T4 on cells; assay: flow cytometry, JEG cells, streptavidin-PE, normalized MFI of 2 pooled experiments
# Experimental: as §2, with “concentration). The antibodies were added in a serial dilution starting at 20 μg/mL titrating down in a 12 step 1/2 dilution down to 0.010 μg/mL.” for “concentration).”
binder,measurement,setting,value
"biotinylated ALG.APV-210 (bispecific antibody, biotinylated (sites not given)) EVQLLESGGGLVQPGGSLRLSCAASGFTFSHGSMYWVRQAPGKGLEWVSSISSGSGSTYYADSVKGRFTISHDNSKNTLYLQMNSLRAEDTAVYYCARSSYYGSYYSIDYWGQGTLVTVSSGGGGSGGGGSGGGGSGGGGSDIQMTQSPSSLSASVGDRVTITCRASQSISSYLNWYQQKPGKAPKLLIYAASSLQSGVPSRFSGSGSGTDFTLTISSLQPEDFATYYCQQYYDNLPTFGQGTKLEIKEPKSSDKTHTCPPCPAPEAAGAPSVFLFPPKPKDTLMISRTPEVTCVVVDVSHEDPEVKFNWYVDGVEVHNAKTKPREEQYNSTYRVVSVLTVLHQDWLNGKEYKCAVSNKALPAPIEKTISKAKGQPREPQVYTLPPSRDELTKNQVSLTCLVKGFYPSDIAVEWESNGQPENNYKTTPPVLDSDGSFFLYSKLTVDKSRWQQGNVFSCSVMHEALHNHYTQKSLSLSPGSGGGGSGGGGSGGGGSPSEVQLLESGGGLVQPGGSLRLSCAASGFTFSSYAMSWVRQAPGKCLEWVSAISGSGGSTYYADSVKGRFTISRDNSKNTLYLQMNSLRAEDTAVYYCARYYGGYYSAWMDYWGQGTLVTVSSGGGGSGGGGSGGGGSGGGGSDIQMTQSPSSLSASVGDRVTITCRASQSISSFLNWYQQKPGKAPKLLIYAASSLQSGVPSRFSGSGSGTDFTLTISSLQPEDSATYYCQQTYGYLHTFGCGTKLEIKR",EC50,[1],20 nM
same,EC50,[2],15 nM
same,EC50,[3],0.2 nM
same,EC50,[4],9 nM
same,EC50,[5],0.236 nM
same,EC50,[6],0.235 nM
same,EC50,[7],8 nM
